Test results reported in publication PMC4657049.

Target: biotinylated eLtaS protein (extracellular domain of LtaS of S. aureus) (S. aureus 8325-4) (UniProt Q2G093)
Assay: SPR; biotinylated eLtaS immobilised on Sensor Chip SA; C3 and C3b injected at 300, 100, 30, 10 ug/ml; global kinetic fit

Sequence of UniProt Q2G093 (Q2G093 whole entry, the tested form may be a part): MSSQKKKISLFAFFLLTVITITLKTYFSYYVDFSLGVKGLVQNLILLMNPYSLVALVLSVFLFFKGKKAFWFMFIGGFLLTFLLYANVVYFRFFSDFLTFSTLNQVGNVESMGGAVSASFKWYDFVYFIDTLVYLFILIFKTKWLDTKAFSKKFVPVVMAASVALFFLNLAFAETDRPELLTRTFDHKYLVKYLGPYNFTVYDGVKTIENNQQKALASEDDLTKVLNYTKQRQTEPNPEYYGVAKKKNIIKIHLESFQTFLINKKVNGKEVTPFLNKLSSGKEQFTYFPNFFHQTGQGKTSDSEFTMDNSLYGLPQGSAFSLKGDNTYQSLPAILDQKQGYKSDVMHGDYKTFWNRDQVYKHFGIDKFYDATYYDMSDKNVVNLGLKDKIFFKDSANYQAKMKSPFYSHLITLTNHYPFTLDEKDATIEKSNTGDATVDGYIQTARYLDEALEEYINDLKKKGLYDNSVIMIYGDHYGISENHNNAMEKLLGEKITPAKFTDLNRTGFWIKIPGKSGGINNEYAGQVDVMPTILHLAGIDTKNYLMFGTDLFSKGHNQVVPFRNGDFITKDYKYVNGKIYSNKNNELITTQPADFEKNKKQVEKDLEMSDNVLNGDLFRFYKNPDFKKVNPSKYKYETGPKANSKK

Substance | Kd [nM] | koff [s⁻¹] | kon [M⁻¹ s⁻¹]
human complement C3b (from UniProt P01024 23-667; P01024 749-1663) (domain or fragment) | 0.546 | 0.00198 | 3.63e+06
human complement C3 (from UniProt P01024 23-667; P01024 672-1663) (natural protein) | 0.687 | 0.00149 | 2.17e+06
